Article PMC5751167, “Buprofezin Is Metabolized by CYP353D1v2, a Cytochrome P450 Associated with Imidacloprid Resistance in Laodelphax striatellus” (International Journal of Molecular Sciences, 2017)

What was measured:
[1] = substrate: O=[N+]([O-])NC1=NCCN1Cc1ccc(Cl)nc1; test: substrate depletion, Sf9 microsomes; format: biochemical, Laodelphax striatellus; conditions: 0-50 µM substrate; CPR co-expressed
[2] = substrate: COc1ccc([N+](=O)[O-])cc1; test: cells, lysate or membranes; format: biochemical, Laodelphax striatellus; conditions: NADPH, 30 °C, 1 pmol P450, 0-100 µM substrate, CPR co-expressed

B1: CYP353D1v2 (Laodelphax striatellus) (protein)
chain: MVKINGKWLTKYFSTAKVKPYDEIPTLPKWPFLGHAYLFFPNGKYKLERLGDAILDLRRTLGNIFKLNLNGDDLVVSLNPDDARSMYTAEGKLPYRPSFPALANYRKNTFGSIGVVPGNGEEWLHYRKAVLPLLKSNIVVAYAEDHKLIASRFVDYIGRNRGRSNELNDVFNHLLKFAIEATSITCPGVLFNCLDESLDKSDVSNVVTKASVDFMEGMYRTLVEPPFWKMWKTKSYRKLEQSHTAIHRLIADGIEKTKEDLKNNPNKHPFMASLFENSTLSENEILVLAMEVFLGGLDATPTTLAMTLHYLAQNPEAQSKAFNEISSQKQLKYVEACLKETLRLAPSAGASSRYLAEEAVLSGYLVPANTLVAVFSPITSRDEKYFHSPLEFIPERWFRENKAMRHPFASIPFGFGARVCPGRHFVNQEMVIFLTEILRNFKLNSNNGQVGMIHRMNRIPDQEIAIFFNDR
notes: with NADPH--cytochrome P450 reductase
Which Km [1] does the source give for B1 here?
The Km was 6.41 ± 1.27 µM.

And the kcat [1]?
The kcat was 0.001 ± 1.3e-05 s⁻¹.

What about the Km [2] of the same protein?
The Km was 6.21 ± 0.65 µM.
